Earlier results, collected in PMC8894873.

Molecular target: Glu66 (UniProt position 148, FTKKMEENAKK)
Experiment: stability (inferred; the article mentions only a pH dependence of stability)

Staphylococcal nuclease V66E variant (Staphylococcus aureus; V66E)
pKa: 8.8
